{"source": "patent US20250368740A1", "about": "(SHENZHEN BAISHITONG TECHNOLOGY DEVELOPMENT, published 2025)", "binders": {"B1": {"name": "murine monoclonal antibody 147# (antibody, V domains shown)", "VH": "QVQLKQSGIELVRPGASVKLSCKTSGYIFTADWIYWVKQRSGQGLEWIGRIYPGVDSTYYNEKFKDKAILTADKSSSTAYMQLNSLKSEDSAVYFCARGGEVRRDFYALDYWGQGTSVTVSS", "VL": "NIVMTQSPESMSMSLGERVTLSCKASENVGTYVSWYQQKPEQSPKLLIYGASNRYTGVPARFTGSGSATDFTLTISSVQAEDLADYHCGQRYSYPFTFGSGTKLEIK", "notes": "Murine antibody purified from hybridoma supernatant by Protein G and detected with anti-mouse IgG"}}, "key": {"[1]": {"molecular_target": "T1, peptide 1-1, bio-ASMTLEPNKD LRPGDTVTI (145-164)", "T1 construct": "Alanine-scan variant of peptide 1", "T1 peptide": "Biotin-ASMTLEPNKDLRPGDTVTI", "assay": "ELISA on biotin-labeled alanine-scan peptides"}, "[2]": {"molecular_target": "T2, peptide 1-2, bio-P AMTLEPNKD LRPGDTVTI (145-164)", "T2 construct": "Alanine-scan variant of peptide 1", "T2 peptide": "Biotin-PAMTLEPNKDLRPGDTVTI", "assay": "ELISA on biotin-labeled alanine-scan peptides"}, "[3]": {"molecular_target": "T3, peptide 1-3, bio-PS ATLEPNKD LRPGDTVTI (145-164)", "T3 construct": "Alanine-scan variant of peptide 1", "T3 peptide": "Biotin-PSATLEPNKDLRPGDTVTI", "assay": "ELISA on biotin-labeled alanine-scan peptides"}, "[4]": {"molecular_target": "T4, peptide 1-4, bio-PSM ALEPNKD LRPGDTVTI (145-164)", "T4 construct": "Alanine-scan variant of peptide 1", "T4 peptide": "Biotin-PSMALEPNKDLRPGDTVTI", "assay": "ELISA on biotin-labeled alanine-scan peptides"}, "[5]": {"molecular_target": "T5, peptide 1-5, bio-PSMT AEPNKD LRPGDTVTI (145-164)", "T5 construct": "Alanine-scan variant of peptide 1", "T5 peptide": "Biotin-PSMTAEPNKDLRPGDTVTI", "assay": "ELISA on biotin-labeled alanine-scan peptides"}, "[6]": {"molecular_target": "T6, peptide 1-6, bio-PSMTL APNKD LRPGDTVTI (145-164)", "T6 construct": "Alanine-scan variant of peptide 1", "T6 peptide": "Biotin-PSMTLAPNKDLRPGDTVTI", "assay": "ELISA on biotin-labeled alanine-scan peptides"}, "[7]": {"molecular_target": "T7, peptide 1-8, bio-PSMTLEP AKD LRPGDTVTI (145-164)", "T7 construct": "Alanine-scan variant of peptide 1", "T7 peptide": "Biotin-PSMTLEPAKDLRPGDTVTI", "assay": "ELISA on biotin-labeled alanine-scan peptides"}, "[8]": {"molecular_target": "T8, peptide 1-9, bio-PSMTLEPN AD LRPGDTVTI (145-164)", "T8 construct": "Alanine-scan variant of peptide 1", "T8 peptide": "Biotin-PSMTLEPNADLRPGDTVTI", "assay": "ELISA on biotin-labeled alanine-scan peptides"}, "[9]": {"molecular_target": "T9, peptide 1-13, bio-PSMTLEPNKD LR AGDTVTI (145-164)", "T9 construct": "Alanine-scan variant of peptide 1", "T9 peptide": "Biotin-PSMTLEPNKDLRAGDTVTI", "assay": "ELISA on biotin-labeled alanine-scan peptides"}, "[10]": {"molecular_target": "T10, peptide 1-16, bio-PSMTLEPNKD LRPGD AVTI (145-164)", "T10 construct": "Alanine-scan variant of peptide 1", "T10 peptide": "Biotin-PSMTLEPNKDLRPGDAVTI", "assay": "ELISA on biotin-labeled alanine-scan peptides"}, "[11]": {"molecular_target": "T11, peptide 1-17, bio-PSMTLEPNKD LRPGDT ATI (145-164)", "T11 construct": "Alanine-scan variant of peptide 1", "T11 peptide": "Biotin-PSMTLEPNKDLRPGDTATI", "assay": "ELISA on biotin-labeled alanine-scan peptides"}, "[12]": {"molecular_target": "T12, peptide 1-18, bio-PSMTLEPNKD LRPGDTV AI (145-164)", "T12 construct": "Alanine-scan variant of peptide 1", "T12 peptide": "Biotin-PSMTLEPNKDLRPGDTVAI", "assay": "ELISA on biotin-labeled alanine-scan peptides"}, "[13]": {"molecular_target": "T13, peptide 1-19, bio-PSMTLEPNKD LRPGDTVT A (145-164)", "T13 construct": "Alanine-scan variant of peptide 1", "T13 peptide": "Biotin-PSMTLEPNKDLRPGDTVTA", "assay": "ELISA on biotin-labeled alanine-scan peptides"}, "[14]": {"molecular_target": "T14, human CD276 on the surface of tumor cells (human, UniProt Q5ZPR3 29-534)", "T14 construct": "whole, on cells; Endogenous expression on human tumor cell lines; also called CD276 on A498 cells", "T14 sequence (looked up)": "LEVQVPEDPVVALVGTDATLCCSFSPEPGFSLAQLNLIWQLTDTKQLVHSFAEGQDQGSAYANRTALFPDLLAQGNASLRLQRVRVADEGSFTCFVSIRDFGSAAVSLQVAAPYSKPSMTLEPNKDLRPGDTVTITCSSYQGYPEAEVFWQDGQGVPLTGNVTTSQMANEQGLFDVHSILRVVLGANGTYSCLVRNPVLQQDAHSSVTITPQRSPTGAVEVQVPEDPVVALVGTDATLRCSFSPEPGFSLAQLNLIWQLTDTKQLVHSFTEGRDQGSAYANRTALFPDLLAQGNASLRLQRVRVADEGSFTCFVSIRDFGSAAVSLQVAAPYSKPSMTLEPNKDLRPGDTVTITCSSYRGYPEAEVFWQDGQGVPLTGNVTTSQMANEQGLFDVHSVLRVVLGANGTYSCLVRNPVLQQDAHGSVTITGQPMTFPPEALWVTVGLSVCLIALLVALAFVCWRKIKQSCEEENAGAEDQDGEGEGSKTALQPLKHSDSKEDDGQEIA", "assay": "flow cytometry on human renal cancer cells A498", "protocol": "In this experiment, human renal cancer cells A498 were used as the target cells. […] The cells were washed twice with PBS to remove those secondary antibody unbinding to the cells and then resuspended in 100 μL PBS."}, "C2-type 1-Fc": {"molecular_target": "T15, C2-type 1-Fc (human)", "T15 construct": "Expressed in Expi-293F cells, purified on Protein A, tested by Western blot; also called Ig-like C2-type 1 (Domain 2) of human CD276-ECD linked to human Fc; second functional domain of human CD276-ECD", "T15 sequence (chain, as listed by the source limits assumed)": "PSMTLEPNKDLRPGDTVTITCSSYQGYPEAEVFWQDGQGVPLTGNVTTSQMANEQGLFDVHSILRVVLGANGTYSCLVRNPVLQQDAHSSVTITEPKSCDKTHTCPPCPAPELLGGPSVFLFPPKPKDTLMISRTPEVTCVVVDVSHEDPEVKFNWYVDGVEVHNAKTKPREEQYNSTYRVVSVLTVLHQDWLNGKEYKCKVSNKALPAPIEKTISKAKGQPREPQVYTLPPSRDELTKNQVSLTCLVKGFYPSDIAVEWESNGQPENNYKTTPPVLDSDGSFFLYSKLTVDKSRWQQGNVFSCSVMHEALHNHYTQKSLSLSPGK", "assay": "Western blot on Fc fusion proteins of the domains"}, "[15]": {"molecular_target": "T16, recombinant human CD276-ECD protein (human, UniProt Q5ZPR3 29-255)", "T16 construct": "Purchased from Acro BIOSYSTEMS; Used native (ELISA) and reduced and denatured (Western blot); also called B7-H3", "T16 sequence": "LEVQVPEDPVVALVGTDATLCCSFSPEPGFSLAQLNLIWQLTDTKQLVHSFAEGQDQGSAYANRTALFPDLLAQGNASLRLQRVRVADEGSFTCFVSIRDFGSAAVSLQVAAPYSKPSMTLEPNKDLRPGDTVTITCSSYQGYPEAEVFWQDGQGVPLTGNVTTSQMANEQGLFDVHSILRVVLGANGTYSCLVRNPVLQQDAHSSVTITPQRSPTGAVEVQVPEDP", "assay": "indirect ELISA, plate coated with human CD276-ECD"}, "mouse CD276-ECD": {"molecular_target": "T17, mouse CD276-ECD (mouse, UniProt Q8VE98 29-244)", "T17 construct": "Purchased from Acro BIOSYSTEMS; also called mouse CD276-ECD protein", "T17 sequence": "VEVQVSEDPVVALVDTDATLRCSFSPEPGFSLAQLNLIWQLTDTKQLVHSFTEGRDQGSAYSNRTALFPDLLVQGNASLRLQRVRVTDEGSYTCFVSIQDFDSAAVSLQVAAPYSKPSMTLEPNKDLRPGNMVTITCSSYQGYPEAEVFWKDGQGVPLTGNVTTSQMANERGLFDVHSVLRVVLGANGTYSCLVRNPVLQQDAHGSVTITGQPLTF", "assay": "indirect ELISA, plate coated with 2 µg/mL mouse CD276-ECD", "protocol": "(§1) The specific method was as follows: The plates were pre-coated with crab-eating macaque and mouse CD276-ECD proteins diluted to 2 μg/mL in the coating solution (50 mM carbonate coating buffer, pH 9.6) and incubated at 4° C. overnight. The plates were then blocked with 5% skim milk powder at 37° C. for 2 hours. Afterward, the plates were washed 3 times with PBST, and the to-be-tested antibody, diluted in 1% BSA-PBST at various gradients, was added to the blocked plates at 100 μL per well. The plates were incubated at 37° C. for 1 hour. After washing the plates 3 times with PBST, HRP-conjugated goat anti-mouse IgG secondary antibody (purchased from Millipore) was added, and the plates were incubated at 37° C. for 30 minutes. After 3 more washes with PBST, residual droplets were removed by blotting on absorbent paper. Then, 100 μL of TMB substrate (purchased from KPL) was added to each well, and the plates were incubated at room temperature (20±5° C.) in the dark for 5 minutes. Finally, 50 μL of 2 M H2SO4 was added to each well to terminate the substrate reaction, and the OD value at 450 nm was read using a microplate reader to analyze the binding ability of the to-be-tested antibody to the target antigens, i.e., crab-eating macaque and mouse CD276-ECD proteins."}, "[16]": {"molecular_target": "T18, crab-eating macaque CD276-ECD (crab-eating macaque, UniProt Q5ZPR3 217-452 (human entry))", "T18 construct": "Purchased from Acro BIOSYSTEMS; also called crab-eating macaque CD276-ECD protein; crab-eating macaque CD276-ECD antigen", "T18 chain": "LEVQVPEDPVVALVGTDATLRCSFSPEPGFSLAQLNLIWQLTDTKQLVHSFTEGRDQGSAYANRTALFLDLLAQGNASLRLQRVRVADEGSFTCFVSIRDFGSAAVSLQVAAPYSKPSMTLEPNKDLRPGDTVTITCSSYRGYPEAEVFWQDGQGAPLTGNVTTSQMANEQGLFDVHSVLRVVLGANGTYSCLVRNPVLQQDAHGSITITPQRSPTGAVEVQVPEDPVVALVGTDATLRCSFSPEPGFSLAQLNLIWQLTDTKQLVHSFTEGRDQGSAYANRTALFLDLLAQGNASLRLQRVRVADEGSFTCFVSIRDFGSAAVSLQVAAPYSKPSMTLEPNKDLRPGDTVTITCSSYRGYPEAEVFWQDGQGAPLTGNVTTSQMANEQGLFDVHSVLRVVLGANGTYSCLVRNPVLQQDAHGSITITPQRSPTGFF", "assay": "indirect ELISA, plate coated with crab-eating macaque CD276-ECD", "protocol": "as §1"}}, "note": "“And” between values parts separate entries of the source, which are not always exact repeats. Identical values can stand only once. Where no end group is shown, it is not given here. The star is where a group is joined. Biotin = O=C1N[C@H]2[C@H](CS[C@H]2CCCCC(=O)*)N1"}
{"binder": "B1", "values": [{"measurement": "binding result", "setting": "[1]", "value": "binds"}, {"measurement": "binding result", "setting": "[2]", "value": "binds"}, {"measurement": "binding result", "setting": "[3]", "value": "binds"}, {"measurement": "binding result", "setting": "[4]", "value": "binds"}, {"measurement": "binding result", "setting": "[5]", "value": "binds"}, {"measurement": "binding result", "setting": "[6]", "value": "binds"}, {"measurement": "binding result", "setting": "[7]", "value": "binds"}, {"measurement": "binding result", "setting": "[8]", "value": "binds"}, {"measurement": "binding result", "setting": "[9]", "value": "binds"}, {"measurement": "binding result", "setting": "[10]", "value": "binds"}, {"measurement": "binding result", "setting": "[11]", "value": "binds"}, {"measurement": "binding result", "setting": "[12]", "value": "binds"}, {"measurement": "binding result", "setting": "[13]", "value": "binds"}, {"measurement": "EC50", "setting": "[14]", "value": "0.0592 µg/mL and 0.39 nM"}, {"measurement": "binding result", "setting": "C2-type 1-Fc", "value": "binds"}, {"measurement": "EC50", "setting": "[15]", "value": "0.0384 µg/mL and 0.26 nM"}, {"measurement": "binding result", "setting": "mouse CD276-ECD", "value": "no binding"}, {"measurement": "EC50", "setting": "[16]", "value": "0.0302 µg/mL and 0.2 nM"}]}
